Measured values reported in patent publication US20260116991A1 (HAINAN SIMCERE ZAIMING PHARMACEUTICAL, published 2026).
Where a chain is given by its changes, count along the chain named.

T1: polypeptide GC3pep (human)
T1 construct: also called membrane proximal polypeptide GC3pep
T1 peptide: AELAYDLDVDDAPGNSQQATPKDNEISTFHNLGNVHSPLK

T2: polypeptide GC3pep of human GPC3 (Ala524-Lys563) (human)
T2 construct: Residues Ala524-Lys563 of human GPC3 (NCBI NM_004484.3); coated on the ELISA plate; also called membrane proximal polypeptide GC3pep
T2 peptide: T1 peptide

B1: F1.21.8 (antibody, human IgG1, kappa, V domains shown)
VH: EVQLQQSGPELVKPGASVKISCKTSGFLFTGHYMHWVKSSHGNILDWIGYIYPYNAISFYNQKFKGKATLTVDKSSNTAYMELRSLTSEDSAVYYCARGDYGNYVTAYWGQGTLVTVSA
VL: DVLMTQTPLSLPVSLGDQASISCRSSQSIVHSSGNTYLEWYLQKPGQSPKLLIYKVSNRFSGVPDRFSGSGSGTDFTLKISRVEAEDLGVYYCFQGSHLPWTFGGGTKLDIKR
notes: human-murine chimeric antibody
B2: F1.111.11 (antibody, human IgG1, kappa, V domains shown)
VH: EVQLQQSGPELVKPGASVKISCKASGYTFTDYYMNWVKQSHGKSLEWIGDIYPNNGDTTYNQRFKGKATLTVDKSSSTAYMELRSLASEDSAVYYCACPYNNPFGYWGQGTLVTVSA
VL: B1 VL with L3V, I29L, S33N, E39H, Y92F, F94S, G96S, S97T, L99V, D110E
notes: as for B1
B3: F4.26.1 (antibody, human IgG1, kappa, V domains shown)
VH: QVQLKQSGPGLVQPSQSLSITCTVSGFSLTSYGVHWVRQSPGKGLEWLGVIWSSGNTDYNAVLISRLSIKKDDSKSQVFFKMNSPQVDDSAIYYCGRNGGWLLRGFMDFWGQGTSVTVSS
VL: DVVMTQTPLSLPVSLGDQASISCRSSQSLLHSNGNTYLHWYLQRSGQSPNLLIYKVSNRFSGVPDRFSGGGSGTDFTLKISRVEAEDLGIYFCSQSTHVPWTFGGGTKLEIKR
notes: as for B1
B4: F1.2.14 (antibody, human IgG1, kappa, V domains shown)
VH: RVQLQQSGAELVKPGASVRMSCKASGYTFTAYSIEWMKQNLGKSLEWIGNFRPYNDDTKYNENFKGRATLTVEKSSATVYLELSRLTSDDSAVYYCARSGPTDYFDYWGQGTTLIVSS
VL: DIQMTQSPASLSASVGETVTITCRASDNIYSYLAWYQQKQGQSPQLLVYNAKTLAEGVPSRFSGSGSVTQFSLKIISLQPEDFGTYYCQHHFGTPRTFGGGTKLEIKR
notes: as for B1
B5: F1.145.22 (antibody, human IgG1, kappa, V domains shown)
VH: QVQLQQSGTDLARPGASVKLSCKASGYTFTSFGISWVKQRTGQGLEWIGEIYPRSGSPYYNEKFTGKATLTADKSSSTAYMELRSLTSEDSAVYFCAKDFGSSYVFDYWGQGTALTVSS
VL: B4 VL with D27E, A34T, Q42K, V68G, I76N, F92Y, R96P, G100T, E105D, I106L
notes: as for B1
B6: hAb007LH2L1b (antibody, human IgG1, V domains shown)
VH: EVQLVQSGAEVKKPGSSVKVSCKASGYTFTDYEMHWVRQAPGQGLEWMGTIDPETGNTAYNQKFKGRVTITADKSTSTAYMELSSLRSEDTAVYYCTRPYSLTYWGQGTLVTVSS
VL: DIVMTQTPLSLPVTPGEPASISCRSSQSFVHSNRDTYLQWYLQKPGQSPQLLIYKVSNRFSGVPDRFSGSGSGTDFTLKISRVEAEDVGVYYCFQGSHVPYTFGQGTKLEIK
notes: Humanized F3.81.19, H2+L1b
B7: hAb006LH3L1b (antibody, human IgG1, V domains shown)
VH: B6 VH with M34I, T50A, E54K, K65M, I70L, P99Y, Y100F, L102F, T103A
VL: B6 VL with S28T, R34A, D35N
notes: Humanized F3.38.7, H3+L1b
B8: hAb003LH2L1b (antibody, human IgG1, V domains shown)
VH: B6 VH with T28R, N61T, K65M, G66D, P99G, L102F
VL: B6 VL with S28N, F29I, D35N, Y54F, Y101F
notes: Humanized F2.154.1, H2+L1b
B9: F1.41.17 human-murine chimeric antibody (antibody, human IgG1, kappa, V domains shown)
VH: EVQLVESGGDSVKPGGSLKLSCAASGFTFSSYGMSWVRQTPDKRLEWVATINSGGSYTYYQDSVKGRFTISRDNAKNTLYLQMSSLKSEDTAIYYCVRHHYGSSYDYFDYWGQGTTLTVSS
VL: DIVMTQAAPSVPVMPGESVSISCRSSKSLLHSNGNTHLYWFLQRPGQSPQLLIYRMSNLASGVPDRFSGSGSGTAFTLRISRVEAEDVGVYYCMQHLEYPLTFGAGTKLELKR
notes: Chimeric
B10: F4.21.16 human-murine chimeric antibody (antibody, human IgG1, kappa, V domains shown)
VH: DVQLQESGPGLVKPSQSLSLTCSVTGYSITSGYYWNWIRQFPGNKLEWMGYISYDVTVNYNPSLKNRISITRDTSKNQFFLKLNSVTTEDTATYYCATITSVASMDHWGQGTSVTVSS
VL: B1 VL with V2I, S28N, S32R, S33N, I53L, V90I, L99F, W101F, G105S, D110E
notes: Chimeric
B11: F1.9.19 human-murine chimeric antibody (antibody, human IgG1, kappa, V domains shown)
VH: DVQLQESGPGLVKPSQSLSLTCSVTGYSITSGYYWNWIRQFPGNRLEWMAYISYDGINNYNPSLKNRISIARDTSTNQFFLKLNSVTSEDTATYYCATTTEVALFDHWGQGTTLTVSS
VL: B1 VL with M4L, S28N, S32G, S33N, Y41F, V90L, G96A, L99V, D110E
notes: Chimeric
B12: F1.118.4 human-murine chimeric antibody (antibody, human IgG1, kappa, V domains shown)
VH: QVQLQQSGAELAKPGASVKLSCKASGYSFTSYWIHWVKQRPGQGLEWIGYINPSSGYTKYNQKFKDKATLTADKSSSTAYMQLSSLTYEDSAVYYCARFGSSSFYFDYWGQGTTLTVSS
VL: DIVLTQSPASLAVSLGQRATISCRASQSVSSSSYSYMHWYQQKPGQPPKLLIKYASNLDSGVPARFSGSGSGTDFTLNIHPVEEEDTATYYCQHSWEIPAFGGGTKLEIKR
notes: Chimeric
B13: F4.26.1 human-murine chimeric antibody (antibody, human IgG1, kappa, V domains shown)
VH: B3 VH
VL: B3 VL
notes: Chimeric
B14: F1.153.1 human-murine chimeric antibody (antibody, human IgG1, kappa, V domains shown)
VH: QIQLVQSGPELKKPGETVKISCKASGYTFTTAGMQWVQKMPGKGFKWIGWINTHSGEPQYAEDFKGRFAFSLETSASTAYLQISNLKNEDTATYFCARSFYYHGSSFFYFDYWGQGTTLTVSS
VL: DIVMTQSQKFMSTTVGDRVSITCKASQNVGTAVAWYQQKPGQSPKLLIYSASNRYTGVPDRFTGSGSGADFTLTISNMQSEDLADYFCQQYSRYPLTFGAGTKLELKR
notes: Chimeric

Biological target: T1, polypeptide GC3pep
Assay: ELISA, GC3pep coated, antibody 0.0001 nM

Row | Binder | OD450 nm [OD450 nm]
1 | B1 | 0.05
2 | B2 | 0.06
3 | B3 | 0.05
4 | B4 | 0.05
5 | B5 | 0.04

biological target: T3, monkey GPC3-His protein (monkey); assay: ELISA, monkey GPC3-His coated; antibody 13.33 nM
T3 construct: Bought protein; also called monkey GPC3 protein

Row | Binder | OD450 nm
6 | B6 | 2.56
7 | B7 | 2.38
8 | B8 | 2.27

Biological target: T2, polypeptide GC3pep of human GPC3 …
Assay: ELISA, coated peptide

Row | Binder | binding result
9 | B9 | no binding (tested: 100 nM)
10 | B10 | no binding (tested: 100 nM)
11 | B11 | no binding (tested: 100 nM)
12 | B12 | no binding (tested: 100 nM)
13 | B13 | no binding (tested: 100 nM)
14 | B14 | no binding (tested: 100 nM)

biological target: T3, monkey GPC3-His protein; assay: ELISA, monkey GPC3-His coated; antibody 0.02 nM

Row | Binder | OD450 nm
15 | B6 | 0.32
16 | B7 | 1.01
17 | B8 | 1.1

biological target: T3, monkey GPC3-His protein; assay: ELISA, monkey GPC3-His coated; antibody 0.0008 nM

Row | Binder | OD450 nm
18 | B6 | 0.08
19 | B7 | 0.125
20 | B8 | 0.185

biological target: T4, GPC3 on HepG2 cells (human, UniProt P51654 25-554); assay: FACS on HepG2 cells
T4 construct: whole, on cells; also called glypican-3

Row | Binder | EC50 [nM] | Max MFI
21 | B6 | 9.53 | 5320
22 | B7 | 1.49 | 4610
23 | B8 | 0.84 | 4620

biological target: T3, monkey GPC3-His protein; assay: ELISA, monkey GPC3-His coated; antibody 66.66 nM

Row | Binder | OD450 nm
24 | B6 | 2.61
25 | B7 | 2.67
26 | B8 | 2.35

biological target: T5, murine GPC3-His protein (murine, UniProt Q8CFZ4 25-558, limits assumed); assay: SPR, antibody captured on Protein A chip, murine GPC3-His injected
T5 construct: bought protein; also called murine GPC3 protein
T5 sequence (Q8CFZ4 25-558 limits assumed): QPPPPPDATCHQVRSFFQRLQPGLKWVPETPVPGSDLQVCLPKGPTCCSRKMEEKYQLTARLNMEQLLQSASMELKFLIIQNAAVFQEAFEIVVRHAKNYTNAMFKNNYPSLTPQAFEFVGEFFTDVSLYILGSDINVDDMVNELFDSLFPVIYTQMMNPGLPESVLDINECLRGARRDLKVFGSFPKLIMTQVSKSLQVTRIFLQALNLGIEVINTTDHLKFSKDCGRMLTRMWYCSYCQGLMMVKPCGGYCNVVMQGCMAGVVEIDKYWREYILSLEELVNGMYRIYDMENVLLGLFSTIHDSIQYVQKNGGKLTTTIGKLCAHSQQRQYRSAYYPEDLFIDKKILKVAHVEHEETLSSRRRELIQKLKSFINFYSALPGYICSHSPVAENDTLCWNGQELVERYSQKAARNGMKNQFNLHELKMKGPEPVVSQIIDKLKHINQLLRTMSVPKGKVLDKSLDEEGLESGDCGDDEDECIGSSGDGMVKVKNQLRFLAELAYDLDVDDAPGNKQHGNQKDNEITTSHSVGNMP

Row | Binder | Kd [nM] | koff [s⁻¹] | kon [M⁻¹ s⁻¹]
27 | B1 | 0.0771 | 4.84e-05 | 628000
28 | B2 | 3.47 | 0.00045 | 129000
29 | B3 | 1.46 | 0.00072 | 492000
30 | B4 | 0.844 | 0.000147 | 174000
31 | B5 | 6.87 | 0.00173 | 251000

biological target: T6, murine GPC3-His protein (Sino Biological, Cat. No. 50989-M08B) (murine, UniProt Q8CFZ4 25-558); assay: ELISA, coated antigen
T6 construct: Bought protein; also called murine GPC3 protein; mouse GPC3-his protein; not shown: His tag
T6 sequence (Q8CFZ4 25-558 limits assumed): as above

Row | Binder | binding result
32 | B9 | no binding (tested: 100 nM)
33 | B10 | no binding (tested: 100 nM)
34 | B11 | no binding (tested: 100 nM)
35 | B12 | no binding (tested: 100 nM)
36 | B14 | no binding (tested: 100 nM)

biological target: T3, monkey GPC3-His protein; assay: ELISA, monkey GPC3-His coated; antibody 2.67 nM

Row | Binder | OD450 nm
37 | B6 | 2.35
38 | B7 | 2.55
39 | B8 | 2.36

biological target: T3, monkey GPC3-His protein; assay: ELISA, monkey GPC3-His coated; antibody 0.53 nM

Row | Binder | OD450 nm
40 | B6 | 2.09
41 | B7 | 2.56
42 | B8 | 2.3

Biological target: T1, polypeptide GC3pep
Assay: ELISA, GC3pep coated, antibody 100 nM;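 also: detection with an HRP-conjugated secondary antibody and TMB substrate, color reaction stopped with HCl before absorbance reading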

Row | Binder | OD450 nm [OD450 nm]
43 | B1 | 0.05
44 | B2 | 0.15
45 | B3 | 0.12
46 | B4 | 0.05
47 | B5 | 0.11

biological target: T3, monkey GPC3-His protein; assay: ELISA, monkey GPC3-His coated; antibody 0.004 nM

Row | Binder | OD450 nm
48 | B6 | 0.127
49 | B7 | 0.306
50 | B8 | 0.386

Biological target: T1, polypeptide GC3pep
Assay: ELISA, GC3pep coated, antibody 0.1 nM;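 also: antibody allowed to bind the coated plate 2 h at 37 °C, then detected via HRP-conjugated secondary antibody and TMB development for 10 min, stopped with HCl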

Row | Binder | OD450 nm [OD450 nm]
51 | B1 | 0.05
52 | B2 | 0.06
53 | B3 | 0.08
54 | B4 | 0.05
55 | B5 | 0.04

Biological target: T1, polypeptide GC3pep
Assay: ELISA, GC3pep coated, antibody 0.001 nM

Row | Binder | OD450 nm [OD450 nm]
56 | B1 | 0.05
57 | B2 | 0.06
58 | B3 | 0.19
59 | B4 | 0.05
60 | B5 | 0.04

Biological target: T1, polypeptide GC3pep
Assay: ELISA, GC3pep coated, antibody 10 nM;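 also: antibody bound to the coated peptide for 2 h at 37 °C, detected through an HRP-conjugated secondary antibody with TMB colour development stopped by acid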

Row | Binder | OD450 nm [OD450 nm]
61 | B1 | 0.05
62 | B2 | 0.06
63 | B3 | 0.04
64 | B4 | 0.05
65 | B5 | 0.05

Biological target: T1, polypeptide GC3pep
Assay: ELISA, GC3pep coated, antibody 0.01 nM;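 also: bound antibody detected with an HRP-conjugated secondary antibody and TMB substrate, color reaction stopped with HCl before reading absorbance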

Row | Binder | OD450 nm [OD450 nm]
66 | B1 | 0.05
67 | B2 | 0.05
68 | B3 | 0.16
69 | B4 | 0.05
70 | B5 | 0.04

Biological target: T1, polypeptide GC3pep
Assay: ELISA, GC3pep coated, antibody 1 nM;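 also: bound antibody detected with an HRP-conjugated secondary antibody and TMB substrate, reaction stopped with HCl, after 2 h binding at 37 °C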

Row | Binder | OD450 nm [OD450 nm]
71 | B1 | 0.05
72 | B2 | 0.06
73 | B3 | 0.28
74 | B4 | 0.05
75 | B5 | 0.04

biological target: T3, monkey GPC3-His protein; assay: ELISA, monkey GPC3-His coated; antibody 0.11 nM

Row | Binder | OD450 nm
76 | B6 | 0.967
77 | B7 | 1.99
78 | B8 | 1.96
